The target of test [1] is human FcγRIIIa-158F (human) (UniProt P08637). Nature of the test: SPR (IBIS MX96), FcγR captured on sensor, full-length IgG1 titrated, pH 7.4, equilibrium 1:1 fit.
In test [2] the target is human FcγRIIIa-158V (human) (UniProt P08637). The description is as above.
Test [3] concerns the target human FcγRIIIb-NA1 (human) (UniProt O75015). The test is described as above.
Test [4] deals with human FcγRIIIb-NA2 (human) (UniProt O75015). The test is described as above.
In test [5] the target is human FcγRIIa-131H (human) (UniProt P12318). The test is described as above.
Test [6] addresses human FcγRIIa-131R (human) (UniProt P12318). The test is described as above.
The target in test [7] is human FcγRIIb (human) (UniProt P31994). The description is as above.
Test [8] has as its target human FcγRIa (human) (UniProt P12314). The description is as above.
The target in test [9] is human FcγRIIIa-158F (human) (UniProt P08637). The test is described as follows: SPR (IBIS MX96), FcγR captured on sensor, full-length IgG1 titrated, pH 6.0, equilibrium 1:1 fit.
Test [10] deals with human FcγRIIIa-158V (human) (UniProt P08637). The description is as above.
For test [11], the target named is human FcγRIIIb-NA1 (human) (UniProt O75015). The description is as above.
For test [12], the target named is human FcγRIIIb-NA2 (human) (UniProt O75015). Described as above.
Test [13] addresses human FcγRIIa-131H (human) (UniProt P12318). The test is described as above.
For test [14], the target named is human FcγRIIa-131R (human) (UniProt P12318). The description is as above.
Test [15] deals with human FcγRIIb (human) (UniProt P31994). The test is described as above.
Test [16] deals with human FcγRIa (human) (UniProt P12314). The description is as above.
Chain of human FcγRIa (human) (P12314 16-288 limits assumed): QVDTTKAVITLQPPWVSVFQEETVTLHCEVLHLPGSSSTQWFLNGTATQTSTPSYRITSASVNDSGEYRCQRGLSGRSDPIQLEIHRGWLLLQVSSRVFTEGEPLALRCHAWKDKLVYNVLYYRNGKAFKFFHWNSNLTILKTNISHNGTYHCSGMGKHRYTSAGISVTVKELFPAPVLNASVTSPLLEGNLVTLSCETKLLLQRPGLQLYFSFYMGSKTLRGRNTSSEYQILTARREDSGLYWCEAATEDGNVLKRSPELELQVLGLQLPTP

Chain of human FcγRIIIb-NA1 (human) (O75015 other isoform, or with tags, fused parts or gaps limits assumed): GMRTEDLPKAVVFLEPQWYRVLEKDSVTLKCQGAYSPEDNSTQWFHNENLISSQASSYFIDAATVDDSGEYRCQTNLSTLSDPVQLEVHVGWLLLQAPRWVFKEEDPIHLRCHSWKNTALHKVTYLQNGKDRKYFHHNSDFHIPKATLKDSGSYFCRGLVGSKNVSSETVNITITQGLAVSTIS
Chain of human FcγRIIIa-158F (human) (P08637 17-208 limits assumed): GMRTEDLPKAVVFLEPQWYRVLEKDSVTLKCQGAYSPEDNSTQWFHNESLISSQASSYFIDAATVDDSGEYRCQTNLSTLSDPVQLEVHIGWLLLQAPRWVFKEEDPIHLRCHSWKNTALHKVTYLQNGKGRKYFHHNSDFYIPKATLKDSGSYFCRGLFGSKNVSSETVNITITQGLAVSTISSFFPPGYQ
Chain of human FcγRIIb (human) (P31994 43-217 limits assumed): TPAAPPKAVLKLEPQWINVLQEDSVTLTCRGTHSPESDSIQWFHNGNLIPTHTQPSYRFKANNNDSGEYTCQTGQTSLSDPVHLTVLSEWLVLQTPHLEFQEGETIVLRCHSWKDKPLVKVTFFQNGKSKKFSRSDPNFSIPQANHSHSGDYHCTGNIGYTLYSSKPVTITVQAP
Chain of human FcγRIIa-131R (human) (P12318 34-218 H167R limits assumed): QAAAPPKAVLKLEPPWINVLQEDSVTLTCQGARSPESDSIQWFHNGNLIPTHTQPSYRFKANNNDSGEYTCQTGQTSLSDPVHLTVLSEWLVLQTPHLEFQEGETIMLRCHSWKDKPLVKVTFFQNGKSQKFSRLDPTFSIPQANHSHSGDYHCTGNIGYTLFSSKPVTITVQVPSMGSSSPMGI
Chain of human FcγRIIIb-NA2 (human) (O75015 17-200 N65S limits assumed): as the sequence (O75015 other isoform, or with tags, fused parts or gaps limits assumed) above, with R20S, N49S, D66N, V90I counted along it
Chain of human FcγRIIa-131H (human) (P12318 34-218 limits assumed): as the sequence (P12318 34-218 H167R limits assumed) above, with R134H counted along it
Chain of human FcγRIIIa-158V (human) (P08637 17-208 F176V limits assumed): as the sequence (P08637 17-208 limits assumed) above, with F160V counted along it

IgG1-WT-afuc (antibody): the Kd in [1] stood at 80.7 nM; in test [2], 16.6 nM; in test [3], 617 nM; in test [4], 552 nM; in test [5] it was 1000 nM; in [6], 1010 nM. Besides, the Kd in the test with human FcγRIIb (human) [7] was greater than 2000 nM; with human FcγRIa (human) [8], 32.9 nM; in test [9], 102 nM; in [10], 17.8 nM; in [11] it was greater than 2000 nM; in test [12], 625 nM. In addition, the Kd in test [13] was 1020 nM; in test [14], 1990 nM; with human FcγRIIb (human) [15], greater than 2000 nM; in the test with human FcγRIa (human) [16], 33.3 nM.
Consider IgG1-G236A (antibody), for which the Kd in test [3] is greater than 2000 nM; in test [5], 126 nM; in test [6] it was 241 nM; with human FcγRIIb (human) [7], greater than 2000 nM; with human FcγRIa (human) [8] it was 13.2 nM; in [10], 491 nM. Moreover, the Kd in test [11] is greater than 2000 nM; in test [13], 141 nM; in test [14], 358 nM; in the test with human FcγRIIb (human) [15], greater than 2000 nM; with human FcγRIa (human) [16], 63.3 nM.
IgG1-WT (antibody): the Kd in test [1] was greater than 2000 nM; in [2] it was 382 nM; in [3], greater than 2000 nM; in test [4], greater than 2000 nM; in test [5], 668 nM; in test [6], 953 nM. For the same substance, the Kd with human FcγRIIb (human) [7] was greater than 2000 nM; with human FcγRIa (human) [8], 7.1 nM; in test [9], 894 nM; in test [10], 337 nM; in test [11] it was greater than 2000 nM; in [12] it was greater than 2000 nM. For the same substance, the Kd is 455 nM in test [13], 920 nM in test [14], greater than 2000 nM with human FcγRIIb (human) [15] and 27 nM with human FcγRIa (human) [16].
On to IgG1-ΔG236 (antibody), for which the Kd with human FcγRIa (human) [8] and in the test with human FcγRIa (human) [16] was greater than 2000 nM throughout.

The values are drawn from patent US20250101111A1.
